Target: eIF4E in B lymphocytes from patients suffering from CLL (human (patients' cells);  for …, UniProt P06730 2-217, limits assumed)
Assay: cell-based or functional assay

Chain of eIF4E in B lymphocytes from patients suffering from CLL (P06730 2-217 limits assumed): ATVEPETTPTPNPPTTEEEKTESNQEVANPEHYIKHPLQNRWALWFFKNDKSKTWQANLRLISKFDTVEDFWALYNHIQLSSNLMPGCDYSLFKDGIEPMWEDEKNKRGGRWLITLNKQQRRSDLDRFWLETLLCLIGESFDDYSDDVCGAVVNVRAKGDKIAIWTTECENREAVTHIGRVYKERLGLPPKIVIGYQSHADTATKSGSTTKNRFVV

B1: A1 WT IRS peptide (peptide)
peptide: RRKYGRDFLLRFRYIRS
Q: With B1 as the binder, how does the “IC50, defined as the concentration of peptide capable of causing the death of 50% of the cells after 24 H (CLL cells)” value read?
A: Its value is roughly 28 µM.

Q: And the “IC50, defined as the concentration of peptide capable of causing the death of 50% of the cells after 24 H (CLL cells, second patient)” value?
A: The value was 24 µM.

— patent US20120172315A1 (CENTRE NATIONAL DE LA RECHERCHE SCIENTIFIQUE, published 2012)
